According to patent US20140141037A1:

Target: RSV F uncleavable ectodomain (Delp21Furx, the ectodomain polypeptide) (respiratory syncytial virus)
Assay: Size exclusion chromatography of the mixture of RSV F monomer and HRA peptide; monomer alone ~75 mls, reference trimer (FP deletion) ~65 mls

Work on LEGEVNKIKSALLSTNKAVVSLSNGVSVLTSKVLDLKNYIDKQLLPIV [RSV F HRA peptide, RSV residues 160-207] yielded a Retention Volume Superdex P200 of 60 mL.
